In US20200087373A1 (UNIVERSITY OF COPENHAGEN, published 2020):
Ends that are not written are not given here. * marks the point of attachment. C16 diacid = O=C(O)CCCCCCCCCCCCCCC(=O)*; Stearoyl = CCCCCCCCCCCCCCCCCC(=O)*; Palmitoyl = CCCCCCCCCCCCCCCC(=O)*; Myristoyl = CCCCCCCCCCCCCC(=O)*; Lauroyl = CCCCCCCCCCCC(=O)*

Experiments:
human GIP receptor [1] = target: T1, human GIP receptor (human, UniProt P48546 22-466); assay: 125I-hGIP(1-42) competition binding, COS-7 cells expressing human GIPR
T1 construct: whole, on cells; Transiently transfected COS-7 cells expressing the human GIP receptor; also called hGIPR
T1 sequence (looked up): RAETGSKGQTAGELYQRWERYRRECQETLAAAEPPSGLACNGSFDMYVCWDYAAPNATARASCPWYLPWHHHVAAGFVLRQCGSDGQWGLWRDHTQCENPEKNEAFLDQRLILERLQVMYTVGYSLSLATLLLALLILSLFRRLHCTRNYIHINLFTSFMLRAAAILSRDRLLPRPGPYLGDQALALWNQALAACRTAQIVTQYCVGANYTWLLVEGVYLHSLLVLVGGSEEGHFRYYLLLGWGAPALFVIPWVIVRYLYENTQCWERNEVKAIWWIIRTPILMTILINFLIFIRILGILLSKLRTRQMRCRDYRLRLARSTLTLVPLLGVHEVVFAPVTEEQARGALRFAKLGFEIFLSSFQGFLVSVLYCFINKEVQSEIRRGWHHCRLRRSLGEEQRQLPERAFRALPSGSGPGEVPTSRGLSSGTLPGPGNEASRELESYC
Method: (§1) After incubation, the cells were washed twice in ice-cold binding buffer (+/−2% HSA) and lysed using 200 mM NaOH with 1% SDS for 30 min. Nonspecific binding was determined as the binding of radioactive ligand to untransfected cells.

human GIP receptor [2] = target: T1, human GIP receptor; assay: 125I-hGIP competition binding on hGIPR COS-7 cells; fold in affinity, paired, reference taken as GIP(3-30)NH2
Method: as §1

human GIP receptor [3] = target: T1, human GIP receptor; assay: 125I-hGIP(1-42) competition binding, COS-7 cells expressing human GIPR, with 2% HSA;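 further: nonspecific signal taken as radioligand bound to untransfected cells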
Method: as §1

human GIP receptor [4] = target: T1, human GIP receptor; assay: 125I-hGIP(1-42) competition binding, COS-7 cells expressing human GIPR, without HSA;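 further: nonspecific binding defined as radioligand bound to cells lacking the transfected receptor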
Method: as §1

human GIP receptor [5] = target: T1, human GIP receptor; assay: ratio of Ki with 2% HSA to Ki without HSA, 125I-hGIP competition binding on hGIPR COS-7 cells;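 further: nonspecific binding was defined as radioligand signal on cells lacking the receptor transfection, with cell lysates measured after washes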
Method: as §1

human GIP receptor [6] = target: T1, human GIP receptor; assay: cell-based or functional assay

B1: AT104 [hGIP(3-30)NH2-C16/3] (peptide)
peptide: Palmitoyl-EGTFISDYSIAMDKIHQQDFVNWLLAQK-NH2
IC50 (human GIP receptor [1]): 0.075 µM
fold (paired) (human GIP receptor [2]): 4.9 fold

B2: AT101 [hGIP(3-30)NH2-C12/3] (peptide)
peptide: Lauroyl-EGTFISDYSIAMDKIHQQDFVNWLLAQK-NH2
IC50 (human GIP receptor [1]): 0.0099 µM
fold (paired) (human GIP receptor [2]): 0.7 fold

B3: AT187 [hGIP(5-30)NH2[L27K]-C16diacid/27] (peptide)
peptide: TFISDYSIAMDKIHQQDFVNWLK(C16 diacid)AQK-NH2
modifications: N-terminus assumed
SMILES: CC[C@H](C)[C@H](NC(=O)[C@H](CO)NC(=O)[C@H](Cc1ccc(O)cc1)NC(=O)[C@H](CC(=O)O)NC(=O)[C@H](CO)NC(=O)[C@@H](NC(=O)[C@H](Cc1ccccc1)NC(=O)[C@@H](N)[C@@H](C)O)[C@@H](C)CC)C(=O)N[C@@H](C)C(=O)N[C@@H](CCSC)C(=O)N[C@@H](CC(=O)O)C(=O)N[C@@H](CCCCN)C(=O)N[C@H](C(=O)N[C@@H](Cc1c[nH]cn1)C(=O)N[C@@H](CCC(N)=O)C(=O)N[C@@H](CCC(N)=O)C(=O)N[C@@H](CC(=O)O)C(=O)N[C@@H](Cc1ccccc1)C(=O)N[C@H](C(=O)N[C@@H](CC(N)=O)C(=O)N[C@@H](Cc1c[nH]c2ccccc12)C(=O)N[C@@H](CC(C)C)C(=O)N[C@@H](CCCCNC(=O)CCCCCCCCCCCCCCC(=O)O)C(=O)N[C@@H](C)C(=O)N[C@@H](CCC(N)=O)C(=O)N[C@@H](CCCCN)C(N)=O)C(C)C)[C@@H](C)CC
Ki (human GIP receptor [3]): 3300 µM
Ki (human GIP receptor [4]): 182 µM
Fold (Ki + HSA / Ki - HSA) (human GIP receptor [5]): 18.2 fold
cAMP accumulation Fold (fold change from GIP(5-30)NH2) (human GIP receptor [6]): 67.6 fold
cAMP accumulation IC50 (human GIP receptor [6]): 1.86 µM
cAMP accumulation logIC50 (human GIP receptor [6]): -5.73 log(M)

B4: AT188 [hGIP(5-30)NH2[A28K]-C16diacid/28] (peptide)
peptide: TFISDYSIAMDKIHQQDFVNWLLK(C16 diacid)QK-NH2
modifications: N-terminus assumed
SMILES: CC[C@H](C)[C@H](NC(=O)[C@H](CO)NC(=O)[C@H](Cc1ccc(O)cc1)NC(=O)[C@H](CC(=O)O)NC(=O)[C@H](CO)NC(=O)[C@@H](NC(=O)[C@H](Cc1ccccc1)NC(=O)[C@@H](N)[C@@H](C)O)[C@@H](C)CC)C(=O)N[C@@H](C)C(=O)N[C@@H](CCSC)C(=O)N[C@@H](CC(=O)O)C(=O)N[C@@H](CCCCN)C(=O)N[C@H](C(=O)N[C@@H](Cc1c[nH]cn1)C(=O)N[C@@H](CCC(N)=O)C(=O)N[C@@H](CCC(N)=O)C(=O)N[C@@H](CC(=O)O)C(=O)N[C@@H](Cc1ccccc1)C(=O)N[C@H](C(=O)N[C@@H](CC(N)=O)C(=O)N[C@@H](Cc1c[nH]c2ccccc12)C(=O)N[C@@H](CC(C)C)C(=O)N[C@@H](CC(C)C)C(=O)N[C@@H](CCCCNC(=O)CCCCCCCCCCCCCCC(=O)O)C(=O)N[C@@H](CCC(N)=O)C(=O)N[C@@H](CCCCN)C(N)=O)C(C)C)[C@@H](C)CC
Ki (human GIP receptor [3]): 0.462 µM
Ki (human GIP receptor [4]): 0.144 µM
Fold (Ki + HSA / Ki - HSA) (human GIP receptor [5]): 3.2 fold
cAMP accumulation Fold (fold change from GIP(5-30)NH2) (human GIP receptor [6]): 6.8 fold
cAMP accumulation IC50 (human GIP receptor [6]): 0.186 µM
cAMP accumulation logIC50 (human GIP receptor [6]): -6.73 log(M)

B5: AT189 [hGIP(5-30)NH2[Q29K]-C16diacid/29] (peptide)
peptide: TFISDYSIAMDKIHQQDFVNWLLAK(C16 diacid)K-NH2
modifications: N-terminus assumed
SMILES: CC[C@H](C)[C@H](NC(=O)[C@H](CO)NC(=O)[C@H](Cc1ccc(O)cc1)NC(=O)[C@H](CC(=O)O)NC(=O)[C@H](CO)NC(=O)[C@@H](NC(=O)[C@H](Cc1ccccc1)NC(=O)[C@@H](N)[C@@H](C)O)[C@@H](C)CC)C(=O)N[C@@H](C)C(=O)N[C@@H](CCSC)C(=O)N[C@@H](CC(=O)O)C(=O)N[C@@H](CCCCN)C(=O)N[C@H](C(=O)N[C@@H](Cc1c[nH]cn1)C(=O)N[C@@H](CCC(N)=O)C(=O)N[C@@H](CCC(N)=O)C(=O)N[C@@H](CC(=O)O)C(=O)N[C@@H](Cc1ccccc1)C(=O)N[C@H](C(=O)N[C@@H](CC(N)=O)C(=O)N[C@@H](Cc1c[nH]c2ccccc12)C(=O)N[C@@H](CC(C)C)C(=O)N[C@@H](CC(C)C)C(=O)N[C@@H](C)C(=O)N[C@@H](CCCCNC(=O)CCCCCCCCCCCCCCC(=O)O)C(=O)N[C@@H](CCCCN)C(N)=O)C(C)C)[C@@H](C)CC
Ki (human GIP receptor [3]): 0.276 µM
Ki (human GIP receptor [4]): 0.0855 µM
Fold (Ki + HSA / Ki - HSA) (human GIP receptor [5]): 3.2 fold
cAMP accumulation Fold (fold change from GIP(5-30)NH2) (human GIP receptor [6]): 3 fold
cAMP accumulation IC50 (human GIP receptor [6]): 0.0832 µM
cAMP accumulation logIC50 (human GIP receptor [6]): -7.08 log(M)

B6: AT110 [hGIP(3-30)NH2-C14/3] (peptide)
peptide: Myristoyl-EGTFISDYSIAMDKIHQQDFVNWLLAQK-NH2
IC50 (human GIP receptor [1]): 0.055 µM
fold (paired) (human GIP receptor [2]): 5.2 fold

B7: AT137 [hGIP(5-30)NH2-C16diacid/5] (peptide)
peptide: {C16 diacid}-TFISDYSIAMDKIHQQDFVNWLLAQK-NH2
SMILES: CC[C@H](C)[C@H](NC(=O)[C@H](CO)NC(=O)[C@H](Cc1ccc(O)cc1)NC(=O)[C@H](CC(=O)O)NC(=O)[C@H](CO)NC(=O)[C@@H](NC(=O)[C@H](Cc1ccccc1)NC(=O)[C@@H](NC(=O)CCCCCCCCCCCCCCC(=O)O)[C@@H](C)O)[C@@H](C)CC)C(=O)N[C@@H](C)C(=O)N[C@@H](CCSC)C(=O)N[C@@H](CC(=O)O)C(=O)N[C@@H](CCCCN)C(=O)N[C@H](C(=O)N[C@@H](Cc1c[nH]cn1)C(=O)N[C@@H](CCC(N)=O)C(=O)N[C@@H](CCC(N)=O)C(=O)N[C@@H](CC(=O)O)C(=O)N[C@@H](Cc1ccccc1)C(=O)N[C@H](C(=O)N[C@@H](CC(N)=O)C(=O)N[C@@H](Cc1c[nH]c2ccccc12)C(=O)N[C@@H](CC(C)C)C(=O)N[C@@H](CC(C)C)C(=O)N[C@@H](C)C(=O)N[C@@H](CCC(N)=O)C(=O)N[C@@H](CCCCN)C(N)=O)C(C)C)[C@@H](C)CC
Ki (human GIP receptor [3]): 0.117 µM
Ki (human GIP receptor [4]): 0.0593 µM
Fold (Ki + HSA / Ki - HSA) (human GIP receptor [5]): 2 fold
cAMP accumulation Fold (fold change from GIP(5-30)NH2) (human GIP receptor [6]): 3.7 fold
cAMP accumulation IC50 (human GIP receptor [6]): 0.102 µM
cAMP accumulation logIC50 (human GIP receptor [6]): -6.99 log(M)

B8: AT140 [hGIP(5-30)NH2-C16diacid/16] (peptide)
peptide: TFISDYSIAMDK(C16 diacid)IHQQDFVNWLLAQK-NH2
modifications: N-terminus assumed
SMILES: CC[C@H](C)[C@H](NC(=O)[C@H](CO)NC(=O)[C@H](Cc1ccc(O)cc1)NC(=O)[C@H](CC(=O)O)NC(=O)[C@H](CO)NC(=O)[C@@H](NC(=O)[C@H](Cc1ccccc1)NC(=O)[C@@H](N)[C@@H](C)O)[C@@H](C)CC)C(=O)N[C@@H](C)C(=O)N[C@@H](CCSC)C(=O)N[C@@H](CC(=O)O)C(=O)N[C@@H](CCCCNC(=O)CCCCCCCCCCCCCCC(=O)O)C(=O)N[C@H](C(=O)N[C@@H](Cc1c[nH]cn1)C(=O)N[C@@H](CCC(N)=O)C(=O)N[C@@H](CCC(N)=O)C(=O)N[C@@H](CC(=O)O)C(=O)N[C@@H](Cc1ccccc1)C(=O)N[C@H](C(=O)N[C@@H](CC(N)=O)C(=O)N[C@@H](Cc1c[nH]c2ccccc12)C(=O)N[C@@H](CC(C)C)C(=O)N[C@@H](CC(C)C)C(=O)N[C@@H](C)C(=O)N[C@@H](CCC(N)=O)C(=O)N[C@@H](CCCCN)C(N)=O)C(C)C)[C@@H](C)CC
notes: also called AT140 [hGIP(5-30)-C16-diacid/16]
Ki (human GIP receptor [3]): 3.28 µM
Ki (human GIP receptor [4]): 2.16 µM
Fold (Ki + HSA / Ki - HSA) (human GIP receptor [5]): 1.5 fold
cAMP accumulation Fold (fold change from GIP(5-30)NH2) (human GIP receptor [6]): 7.4 fold
cAMP accumulation IC50 (human GIP receptor [6]): 0.204 µM
cAMP accumulation logIC50 (human GIP receptor [6]): -6.69 log(M)

B9: AT113 [hGIP(3-30)NH2-C18/3] (peptide)
peptide: Stearoyl-EGTFISDYSIAMDKIHQQDFVNWLLAQK-NH2
IC50 (human GIP receptor [1]): 41.4 µM
fold (paired) (human GIP receptor [2]): 16400 fold

B10: AT102 [hGIP(3-30)NH2-C12/16] (peptide)
peptide: EGTFISDYSIAMDK(Lauroyl)IHQQDFVNWLLAQK-NH2
IC50 (human GIP receptor [1]): 0.0591 µM
fold (paired) (human GIP receptor [2]): 6.1 fold
